Laboratory results as given in PMC9482650, “Quantitative fragmentomics allow affinity mapping of interactomes” (Nature Communications, 2022).

Experiments:
Assay in all cases: holdup assay
Set-up in all cases: key: below the threshold = too weak to quantify, mostly under pKd 3.1 to 4
DLG5_1, Q8TDM6 = target: DLG5_1, Q8TDM6
PICK1, Q9NRD5 = target: PICK1, Q9NRD5
GRIP2_6, Q9C0E4 = target: GRIP2_6, Q9C0E4
HTRA3, P83110 = target: T1, HTRA3, P83110
T1 sequence (P83110 354-453, limits assumed, looked up): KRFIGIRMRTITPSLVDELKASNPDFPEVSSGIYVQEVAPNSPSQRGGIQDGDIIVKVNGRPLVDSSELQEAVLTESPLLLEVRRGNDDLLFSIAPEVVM

GRID2IP_2, A4D2P6 = target: GRID2IP_2, A4D2P6
GRASP, Q7Z6J2 = target: GRASP, Q7Z6J2
TJP1_3, Q07157 = target: TJP1_3, Q07157
NOS1, P29475 = target: NOS1, P29475
RADIL, Q96JH8 = target: T2, RADIL, Q96JH8
T2 sequence (Q96JH8 971-1071, limits assumed, looked up): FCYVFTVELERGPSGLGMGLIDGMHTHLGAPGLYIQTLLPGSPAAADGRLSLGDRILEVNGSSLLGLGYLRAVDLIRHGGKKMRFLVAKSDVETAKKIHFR

PDZRN3_1, Q9UPQ7 = target: T3, PDZRN3_1, Q9UPQ7
T3 sequence (Q9UPQ7 244-349, limits assumed, looked up): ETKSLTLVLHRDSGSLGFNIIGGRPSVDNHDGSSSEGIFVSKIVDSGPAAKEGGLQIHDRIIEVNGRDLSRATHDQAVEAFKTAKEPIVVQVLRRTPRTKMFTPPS

APBA3_1, O96018 = target: T4, APBA3_1, O96018
T4 sequence (O96018 389-490, limits assumed, looked up): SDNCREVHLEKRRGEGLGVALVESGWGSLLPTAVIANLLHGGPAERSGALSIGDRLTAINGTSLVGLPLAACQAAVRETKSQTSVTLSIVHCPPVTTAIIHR

LNX1_2, Q8TBB1 = target: LNX1_2, Q8TBB1
FRMPD3, Q5JV73 = target: FRMPD3, Q5JV73
GORASP2, Q9H8Y8 = target: GORASP2, Q9H8Y8
IL16_3, Q14005 = target: IL16_3, Q14005
TIAM2, Q8IVF5 = target: T5, TIAM2, Q8IVF5
T5 sequence (Q8IVF5 885-986, limits assumed, looked up): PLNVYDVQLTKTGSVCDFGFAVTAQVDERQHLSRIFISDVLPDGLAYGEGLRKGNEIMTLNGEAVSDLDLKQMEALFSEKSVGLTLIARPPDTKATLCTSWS

GRIP1_4, Q9Y3R0 = target: T6, GRIP1_4, Q9Y3R0
T6 sequence (Q9Y3R0 467-571, limits assumed, looked up): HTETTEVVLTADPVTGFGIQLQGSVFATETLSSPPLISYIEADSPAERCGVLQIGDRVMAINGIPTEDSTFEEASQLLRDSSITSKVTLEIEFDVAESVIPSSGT

IL16_4, Q14005 = target: IL16_4, Q14005
MAGI2_2, Q86UL8 = target: MAGI2_2, Q86UL8
DFNB31_3, Q9P202 = target: T7, DFNB31_3, Q9P202
T7 sequence (Q9P202 811-907, limits assumed, looked up): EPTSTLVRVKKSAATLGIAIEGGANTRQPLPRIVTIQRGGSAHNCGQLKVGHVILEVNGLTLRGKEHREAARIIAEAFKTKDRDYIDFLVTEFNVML

DFNB31_1, Q9P202 = target: T8, DFNB31_1, Q9P202
T8 sequence (Q9P202 135-233, limits assumed, looked up): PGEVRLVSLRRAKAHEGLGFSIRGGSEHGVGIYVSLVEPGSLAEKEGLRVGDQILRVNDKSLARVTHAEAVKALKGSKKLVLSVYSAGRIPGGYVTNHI

Inadl_9, Q8NI35 = target: Inadl_9, Q8NI35
MPDZ_12, O75970 = target: T9, MPDZ_12, O75970
T9 sequence (O75970 1857-1958, limits assumed, looked up): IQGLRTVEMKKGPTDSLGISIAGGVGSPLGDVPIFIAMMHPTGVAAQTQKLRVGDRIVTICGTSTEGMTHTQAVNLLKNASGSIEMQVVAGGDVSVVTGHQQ

MPP2, Q14168 = target: T10, MPP2, Q14168
T10 sequence (Q14168 180-250, limits assumed, looked up): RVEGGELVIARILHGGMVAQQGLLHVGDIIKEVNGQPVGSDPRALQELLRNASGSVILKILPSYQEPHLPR

DLG3_2, Q92796 = target: T11, DLG3_2, Q92796
T11 sequence (Q92796 221-321, limits assumed, looked up): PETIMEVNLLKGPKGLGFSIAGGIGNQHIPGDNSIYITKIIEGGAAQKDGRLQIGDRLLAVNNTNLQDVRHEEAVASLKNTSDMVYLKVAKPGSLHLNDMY

GRIP2_4, Q9C0E4 = target: GRIP2_4, Q9C0E4
[1] = plain residues with an end cap or a label only (N-terminal biotin on a linker: ahx)
[2] = plain residues with an end cap or a label only (N-terminal biotin on a linker: ado-ado)

Measured: pKd

NOS1, P29475, sequence (P29475 9-101): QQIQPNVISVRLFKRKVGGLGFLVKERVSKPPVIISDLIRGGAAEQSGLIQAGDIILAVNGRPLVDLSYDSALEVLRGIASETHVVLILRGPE
Inadl_9, Q8NI35, sequence (Q8NI35 1530-1615): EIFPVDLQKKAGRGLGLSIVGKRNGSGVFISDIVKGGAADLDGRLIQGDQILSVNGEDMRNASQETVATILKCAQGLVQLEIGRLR
IL16_4, Q14005, sequence (Q14005 1229-1329): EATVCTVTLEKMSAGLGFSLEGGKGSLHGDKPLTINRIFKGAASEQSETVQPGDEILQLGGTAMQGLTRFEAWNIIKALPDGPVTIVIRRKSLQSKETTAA
GRIP2_6, Q9C0E4, sequence (Q9C0E4 648-740): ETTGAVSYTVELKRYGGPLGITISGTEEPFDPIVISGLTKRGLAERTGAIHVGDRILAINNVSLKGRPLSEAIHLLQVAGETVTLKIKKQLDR
GRIP2_4, Q9C0E4, sequence (Q9C0E4 446-548): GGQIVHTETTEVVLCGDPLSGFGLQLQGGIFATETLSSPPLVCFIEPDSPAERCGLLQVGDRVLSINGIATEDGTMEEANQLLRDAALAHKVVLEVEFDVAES
LNX1_2, Q8TBB1, sequence (Q8TBB1 371-470): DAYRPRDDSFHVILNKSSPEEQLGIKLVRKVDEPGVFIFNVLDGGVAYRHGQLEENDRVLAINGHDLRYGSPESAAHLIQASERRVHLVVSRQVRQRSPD
IL16_3, Q14005, sequence (Q14005 1107-1207): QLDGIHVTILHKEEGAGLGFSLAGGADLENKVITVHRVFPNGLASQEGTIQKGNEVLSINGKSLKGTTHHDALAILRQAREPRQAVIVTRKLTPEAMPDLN
TJP1_3, Q07157, sequence (Q07157 416-512): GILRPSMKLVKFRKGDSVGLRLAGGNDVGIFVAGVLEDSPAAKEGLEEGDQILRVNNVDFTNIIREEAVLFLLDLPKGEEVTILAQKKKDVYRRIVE
DLG5_1, Q8TDM6, sequence (Q8TDM6 617-713): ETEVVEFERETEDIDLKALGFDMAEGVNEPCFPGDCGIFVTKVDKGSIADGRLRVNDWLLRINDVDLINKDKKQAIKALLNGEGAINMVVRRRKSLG
MAGI2_2, Q86UL8, sequence (Q86UL8 410-522): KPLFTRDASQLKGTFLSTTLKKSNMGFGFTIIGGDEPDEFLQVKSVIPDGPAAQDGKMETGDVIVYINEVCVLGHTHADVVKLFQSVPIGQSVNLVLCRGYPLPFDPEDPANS
GRID2IP_2, A4D2P6, sequence (A4D2P6 272-370): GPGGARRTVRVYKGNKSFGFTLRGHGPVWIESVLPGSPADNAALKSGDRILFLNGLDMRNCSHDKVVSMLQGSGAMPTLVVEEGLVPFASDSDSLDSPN
FRMPD3, Q5JV73, sequence (Q5JV73 12-100): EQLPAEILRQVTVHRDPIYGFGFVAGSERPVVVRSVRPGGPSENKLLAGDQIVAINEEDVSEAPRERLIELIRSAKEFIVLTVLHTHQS
GRASP, Q7Z6J2, sequence (Q7Z6J2 96-193): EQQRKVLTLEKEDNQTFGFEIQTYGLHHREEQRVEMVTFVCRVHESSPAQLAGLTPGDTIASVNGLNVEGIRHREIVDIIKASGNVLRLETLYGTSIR
PICK1, Q9NRD5, sequence (Q9NRD5 17-115): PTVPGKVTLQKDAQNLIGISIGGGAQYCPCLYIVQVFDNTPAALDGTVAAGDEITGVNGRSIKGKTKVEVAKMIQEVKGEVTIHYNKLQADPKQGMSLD

B1: NHERF2, Q15599 (peptide)
chain: NRKREIFSNF
below the threshold: DLG5_1, Q8TDM6; [1] | PICK1, Q9NRD5; [1] | GRIP2_6, Q9C0E4; [1] | HTRA3, P83110; [1] | GRID2IP_2, A4D2P6; [1] | GRASP, Q7Z6J2; [1] | TJP1_3, Q07157; [1] | NOS1, P29475; [1] | RADIL, Q96JH8; [1] | PDZRN3_1, Q9UPQ7; [1] | APBA3_1, O96018; [1] | LNX1_2, Q8TBB1; [1] | FRMPD3, Q5JV73; [1] | GORASP2, Q9H8Y8; [1] | IL16_3, Q14005; [1] | TIAM2, Q8IVF5; [1] | GRIP1_4, Q9Y3R0; [1] | IL16_4, Q14005; [1] | MAGI2_2, Q86UL8; [1] | DFNB31_3, Q9P202; [1] | DFNB31_1, Q9P202; [1] | Inadl_9, Q8NI35; [1] | MPDZ_12, O75970; [1] | MPP2, Q14168; [1] | DLG3_2, Q92796; [1] | GRIP2_4, Q9C0E4; [1]

B2: TRIM50, Q86XT4 (peptide)
chain: PLSPEQPTKL
4: GRASP, Q7Z6J2; [2]
below the threshold: DLG5_1, Q8TDM6; [2] | PICK1, Q9NRD5; [2] | GRIP2_6, Q9C0E4; [2] | HTRA3, P83110; [2] | GRID2IP_2, A4D2P6; [2] | TJP1_3, Q07157; [2] | NOS1, P29475; [2] | RADIL, Q96JH8; [2] | PDZRN3_1, Q9UPQ7; [2] | APBA3_1, O96018; [2] | LNX1_2, Q8TBB1; [2] | FRMPD3, Q5JV73; [2] | GORASP2, Q9H8Y8; [2] | IL16_3, Q14005; [2] | TIAM2, Q8IVF5; [2] | GRIP1_4, Q9Y3R0; [2] | IL16_4, Q14005; [2] | MAGI2_2, Q86UL8; [2] | DFNB31_1, Q9P202; [2] | Inadl_9, Q8NI35; [2] | MPDZ_12, O75970; [2] | MPP2, Q14168; [2] | DLG3_2, Q92796; [2] | GRIP2_4, Q9C0E4; [2]
3.93: DFNB31_3, Q9P202; [2]
